Here are results for 1 substance from article doi:10.1101/2024.07.10.602906.

The target of assay [1] is GV CW1 murine norovirus VP1 P-domain (wild type) (murine norovirus (GV, MNV-1 CW1)) (UniProt Q80J95). Kind of assay: methyl TROSY NMR.
Assay [2] has the same target. The assay can be described thus: NMR titration.

In general, Kd refers to a measure of binding affinity in units of concentration. As a reminder, the koff is the first-order rate constant of dissociation. In assay [1], “GV CW1 murine norovirus VP1 P-domain (wild type) (from UniProt Q80J95 228-530) (domain or fragment)” gave a percent dimers at pH* 5.3 greater than 70% and a percent monomers at pH 7.4 of 70%. Moreover, in assay [2], the Kd turned out to be 45 µM and the koff turned out to be 4.7 s⁻¹.
